The subject of the data set is ATP. The experiment in a line: switch fluorescence ratio, 500 uM ATP over buffer (Cy3 cluster intensity, sum of 5 cycles each) (fold (ratio)); higher = stronger signal-on switching upon ATP binding; sequences stand for … in TCGTCGGCAGCGTCAGATGTGTATAAGAGACAGTTTTTTTTTTTTTTTTTTTTTTTTT…TC. To be noted: aptamer strand: ATP DNA aptamer (quencher-CACCTGGGGGAGTATTGCGGAGGAAGG + anchor), 100 nM annealed; ATP concentration: 500 uM. The essentials: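 Five buffer/ATP imaging cycles were run on Cy3-labelled switching-strand clusters on a modified Illumina MiSeq flow-cell, with NaOH stripping and re-annealing between cycles. In each cycle, clusters annealed to 100 nM quencher-labelled ATP aptamer were imaged in selection buffer, then after 15 min with 500 uM ATP at 22 °C. Per cluster, the fluorescence ratio is summed target-cycle over summed buffer-cycle Cy3 intensity, averaged per switch-domain sequence. Only clusters within 100-1000 RFU were kept.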

± gives the standard deviation of the averaged measurements.
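Note: ATP exposure 15 min at 22 °C before imaging.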

As for CGGTAGTATC, the switch fluorescence ratio is 0.982 ± 0.049. As for CGGTAGTCGA, the figure is 1.02 ± 0.052. With CGGTATCCGT the figure was 0.978 ± 0.062; with CGGTATCTGA, 0.9888 ± 0.006. As for CGGTATTGGT, the figure is 0.976 ± 0.031; as for CGGTATTTGC, 0.979 ± 0.0099. On to CGGTATTTTT, for which the switch fluorescence ratio is 1.02 ± 0.028. Take CGGTCAACG: the switch fluorescence ratio amounted to 0.993 ± 0.022.

Take CGGTCACGCG: the switch fluorescence ratio worked out at 0.972 ± 0.039. As to CGGTCAGGGA, the switch fluorescence ratio is 1.01 ± 0.037. In the case of CGGTCATTCA, the switch fluorescence ratio was found to be 1.02 ± 0.055. In the case of CGGTCCGGG, the switch fluorescence ratio turned out to be 1.05 ± 0.061. With CGGTCCGGTT, the switch fluorescence ratio turned out to be 0.9862 ± 0.0018. For the sequence CGGTCGCAGT, the switch fluorescence ratio stood at 1.02 ± 0.055. For the sequence CGGTCGGGAA, the switch fluorescence ratio worked out at 1.005 ± 0.01. With CGGTCGGGAT the figure was 0.9606 ± 0.0031; with CGGTCGGGCG, 1.03 ± 0.023; with CGGTCTATTG, 1.002 ± 0.0098. As for CGGTCTCATC, the figure is 1.02 ± 0.014; as for CGGTGAAGTT, 0.966 ± 0.01. As for CGGTGCATGG, the switch fluorescence ratio is 0.991 ± 0.1.

With CGGTGCCTTG, the switch fluorescence ratio was found to be 0.978 ± 0.026. As for CGGTGCGATT, the figure is 1.03 ± 0.019. As for CGGTGCTACT, the figure is 1.03 ± 0.063; as for CGGTGCTGCG, 1.065 ± 0.0039; as for CGGTGGCTCC, 1.026 ± 0.0025.

Regarding CGGTGGGAGA, the switch fluorescence ratio amounted to 1.023 ± 0.0078. As for CGGTGGGAGT, the figure is 0.973 ± 0.03; as for CGGTGGGGGA, 0.986 ± 0.025; as for CGGTGGGGGC, 0.9806 ± 0.0057. With CGGTGGTGAG the figure was 1.012 ± 0.0049; with CGGTGGTTGT, 0.9948 ± 0.0052; with CGGTGTACGC, 1.061 ± 0.0034. For the sequence CGGTGTATCG, the switch fluorescence ratio was 0.983 ± 0.027.

On to CGGTGTGTCT, for which the switch fluorescence ratio came to 1.02 ± 0.019. As for CGGTGTTGTT, the figure is 1.018 ± 0.0014; as for CGGTGTTTGG, 0.972 ± 0.015.

Regarding CGGTTAGACT, the switch fluorescence ratio was 0.975 ± 0.05.

Consider CGGTTAGTGT, for which the switch fluorescence ratio amounted to 0.971 ± 0.035. Regarding CGGTTATATG, the switch fluorescence ratio was determined as 1.02 ± 0.015.

With CGGTTCGCGT, the switch fluorescence ratio was found to be 0.972 ± 0.031. As for CGGTTCTCTC, the figure is 1.02 ± 0.013. Regarding CGGTTGACTT, the switch fluorescence ratio was determined as 0.992 ± 0.057. With CGGTTGATGC the figure was 0.997 ± 0.059. Consider CGGTTGGTGA, for which the switch fluorescence ratio was determined as 0.974 ± 0.035. With CGGTTGTACC the figure was 1.007 ± 0.0079. As to CGGTTGTGAA, the switch fluorescence ratio amounted to 0.963 ± 0.018.

Consider CGGTTGTGGG, for which the switch fluorescence ratio came out at 0.996 ± 0.018. For CGGTTTCTGG, the switch fluorescence ratio was found to be 0.9856 ± 0.0053.

As for CGGTTTCTTT, the switch fluorescence ratio stood at 0.967 ± 0.053.

For CGGTTTGACT, the switch fluorescence ratio was 0.9563 ± 0.0063. As for CGGTTTGCGG, the figure is 0.982 ± 0.017; as for CGGTTTGGAT, 1.01 ± 0.035. With CGGTTTGGTG the figure was 1.01 ± 0.029; with CGGTTTTAAG, 1.02 ± 0.018; with CGGTTTTGTA, 0.971 ± 0.028.

For CGGTTTTGTT, the switch fluorescence ratio worked out at 1.02 ± 0.035. With CGTAAAAGAT, the switch fluorescence ratio is 1.04 ± 0.06. With CGTAAAATCG the figure was 0.995 ± 0.042. As for CGTAAATTAT, the figure is 0.993 ± 0.029; as for CGTAAATTGG, 1.02 ± 0.013.

CGTAATAAGG: the switch fluorescence ratio is 0.98799 ± 0.00022.

Consider CGTAATGAAG, for which the switch fluorescence ratio was determined as 1.004 ± 0.0064.

With CGTAATGCCT, the switch fluorescence ratio amounted to 1.03 ± 0.098. Consider CGTACATGT, for which the switch fluorescence ratio was 1.02 ± 0.024.

In the case of CGTACGTCAT, the switch fluorescence ratio was 1.08 ± 0.04. As for CGTACGTTCT, the figure is 1.026 ± 0.0096; as for CGTACTTCCG, 1.019 ± 0.0053. For CGTACTTGGG, the switch fluorescence ratio turned out to be 0.982 ± 0.011. With CGTAGAATGT the figure was 0.992 ± 0.022; with CGTAGAGAGG, 0.998 ± 0.0029; with CGTAGCTTTT, 1.82 ± 0.67. With CGTAGGCGTA the figure was 0.98 ± 0.03; with CGTAGGGGCT, 1 ± 0.011. As for CGTAGTTCTT, the figure is 1.01 ± 0.03. On to CGTAGTTTCG, for which the switch fluorescence ratio worked out at 1.013 ± 0.008. As for CGTAGTTTTA, the figure is 1.044 ± 0.0041. As for CGTATAGGAT, the figure is 1.01 ± 0.036; as for CGTATATAGT, 1.01 ± 0.014. As for CGTATATGTG, the figure is 0.989 ± 0.035; as for CGTATCAAAA, 1.02 ± 0.019; as for CGTATGAAAA, 1 ± 0.014. With CGTATGAAGA, the switch fluorescence ratio was 1.02 ± 0.016. As for CGTATGCAGT, the figure is 1.01 ± 0.011; as for CGTATGCTGG, 1.02 ± 0.019. As to CGTATGGGAA, the switch fluorescence ratio was determined as 1.026 ± 0.0082. With CGTATTAGGT the figure was 0.9553 ± 0.0086; with CGTATTATTA, 0.988 ± 0.03. As for CGTATTCGCT, the figure is 0.993 ± 0.021; as for CGTATTTCAG, 0.983 ± 0.011. In the case of CGTCAACTGC, the switch fluorescence ratio was 1.17 ± 0.039. With CGTCACCGGG the figure was 1.11 ± 0.032. As for CGTCACTAGC, the figure is 1.04 ± 0.022.

For the sequence CGTCAGGGGG, the switch fluorescence ratio was determined as 0.972 ± 0.027.

Turning to CGTCATGGGT, the switch fluorescence ratio is 1 ± 0.035.

Turning to CGTCATTTTC, the switch fluorescence ratio is 1.05 ± 0.1. For CGTCCATTGA, the switch fluorescence ratio was found to be 1.03 ± 0.019.

Turning to CGTCCGGATG, the switch fluorescence ratio came to 1.19 ± 0.13. As for CGTCCGGCAG, the figure is 1.67 ± 0.083; as for CGTCCTATTT, 1.01 ± 0.029; as for CGTCCTCATG, 1.302 ± 0.0067. As for CGTCGAGTGC, the figure is 0.962 ± 0.011; as for CGTCGCCGGT, 1 ± 0.0078; as for CGTCGGAGGG, 0.977 ± 0.013. CGTCGGAGTG: the switch fluorescence ratio is 1.01 ± 0.022. With CGTCGGGAAT the figure was 1.35 ± 0.051; with CGTCGGGGCA, 0.964 ± 0.074. With CGTCGTAAAA the figure was 0.999 ± 0.036; with CGTCTAAGGG, 1.06 ± 0.13.

In the case of CGTCTGGGAT, the switch fluorescence ratio was 1.01 ± 0.037.

As for CGTCTGTCTG, the switch fluorescence ratio turned out to be 0.976 ± 0.033.

On to CGTCTTAAAG, for which the switch fluorescence ratio stood at 1 ± 0.036. Consider CGTCTTAGTT, for which the switch fluorescence ratio was 0.993 ± 0.015. As to CGTGAAAATC, the switch fluorescence ratio was determined as 0.9987 ± 0.0075. In the case of CGTGACAGAG, the switch fluorescence ratio was found to be 0.992 ± 0.02. Consider CGTGAGAAGT, for which the switch fluorescence ratio was determined as 0.9923 ± 0.0041. As to CGTGAGAATG, the switch fluorescence ratio worked out at 0.997 ± 0.026. As for CGTGAGGGGG, the switch fluorescence ratio is 1.01 ± 0.012. With CGTGAGGGGT the figure was 0.994 ± 0.026; with CGTGAGTGGT, 1.018 ± 0.0037.
